One substance from patent US20240252641A1 can be followed below.

For assay [1], the target named is CD70 on cells (CHO-CD70, JVM-3, U266, Raji, THP-1, T cells) (human) (UniProt P32970). The assay can be described thus: on JVM-3 cells.
The target is the same in assay [2]. The assay can be described thus: on U266 cells.
For assay [3] the target is unchanged. Kind of assay: on Raji cells.

Chain of CD70 on cells (CHO-CD70, JVM-3, U266, Raji, THP-1, T cells) (human) (P32970 whole entry): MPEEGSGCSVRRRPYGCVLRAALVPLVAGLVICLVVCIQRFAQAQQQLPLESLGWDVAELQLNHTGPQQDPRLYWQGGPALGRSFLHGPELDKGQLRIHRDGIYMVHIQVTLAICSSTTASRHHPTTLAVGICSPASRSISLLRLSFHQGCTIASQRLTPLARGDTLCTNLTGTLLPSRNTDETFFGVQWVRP

On to “1F6 (clone ID in Table 3, alloy mouse hybridoma) (antibody)”, for which the cell binding in assay [1] was 225000; in assay [2], 239000; in assay [3] it was 68900.
